# Measurements as given in PMC13397619.
# B1: NLV2 TCR alpha chain (CDR3α only) (parent)
# chain: AGPMKTSYDKVI
# B2: NLV2 TCR alpha chain (CDR3α only) (parent)
# chain: AGPMKTSYDKVI
# partner: NLVGMVATV
# Assays:
# [1] = variants of: B1; assay: T-Switch: Jurkat TCRβ−/− cells expressing a CDR3 saturation-mutagenesis library, stained with two peptide-HLA-A*02:01 tetramers (original and novel peptide) plus anti-CD3, FACS-sorted into four gates, gDNA sequenced; details: tetramers 1 µg/mL, 30 min on ice, SP, DP and SW gates expanded about 10 days between rounds ('two to three rounds of selection' in the Methods), unresolved parent, parent is a CDR3 fragment, scale: fold enrichment, numbering: sequential-on-construct, sequence starts at 1
# [2] = variants of: B2; assay: as above; details: with HLA-A*02:01 with peptide … (NLV 2-2, the original bait), tetramers 1 µg/mL, 30 min on ice, DP and SW gates expanded about 10 days between rounds ('two to three rounds of selection' in the Methods), gate SP: higher = more of the variant in the gate that binds the original peptide and not the novel one = retained original binding. Fold enrichment of the CDR3 variant in one FACS gate of a two-tetra, unresolved parent, parent is a CDR3 fragment, scale: fold enrichment, numbering: sequential-on-construct, sequence …
# [3] = with both tetramers (double-negative gate, binds neither): HLA-A*02:01 with … and with …, gate DN: OPPOSITE: higher = more of the variant in the gate that binds neither peptide = LESS binding (or no expression; inferred). Fold enrichment of the CDR3 variant in one FACS gate of a two-tetram
# [4] = with both tetramers (double-positive gate): HLA-A*02:01 with … and with …, gate DP: higher = more of the variant in the gate that binds both peptides. Fold enrichment of the CDR3 variant in one FACS gate of a two-tetramer stain. SP/DP/SW gates were expanded and re-sorted bef
Variant,"enrichment [1, 3]","enrichment [1, 4]",enrichment [2]
[…] (CDR3 as printed); K10D derived by comparing it with the table's wild-type CDR3 AGPMKTSYDKVI,0.842,0,
[…] (CDR3 as printed); Y8N derived by comparing it with the table's wild-type CDR3 AGPMKTSYDKVI,0.932,0,
[…] (CDR3 as printed); P3L derived by comparing it with the table's wild-type CDR3 AGPMKTSYDKVI,1.13,0,
[…] (CDR3 as printed); D9T derived by comparing it with the table's wild-type CDR3 AGPMKTSYDKVI,0.889,0,
[…] (CDR3 as printed); K10L derived by comparing it with the table's wild-type CDR3 AGPMKTSYDKVI,1.05,0,
[…] (CDR3 as printed); D9V derived by comparing it with the table's wild-type CDR3 AGPMKTSYDKVI,0.959,0,
[…] (CDR3 as printed); Y8L derived by comparing it with the table's wild-type CDR3 AGPMKTSYDKVI,1,0,
[…] (CDR3 as printed); G2F derived by comparing it with the table's wild-type CDR3 AGPMKTSYDKVI,0.804,0,
[…] (CDR3 as printed); I12W derived by comparing it with the table's wild-type CDR3 AGPMKTSYDKVI,0.924,0,
[…] (CDR3 as printed); G2W derived by comparing it with the table's wild-type CDR3 AGPMKTSYDKVI,1.05,0,
[…] (CDR3 as printed); K5M derived by comparing it with the table's wild-type CDR3 AGPMKTSYDKVI,0.901,0,
[…] (CDR3 as printed); M4K derived by comparing it with the table's wild-type CDR3 AGPMKTSYDKVI,0.454,0,
[…] (CDR3 as printed); Y8R derived by comparing it with the table's wild-type CDR3 AGPMKTSYDKVI,1.17,0,
[…] (CDR3 as printed); A1C derived by comparing it with the table's wild-type CDR3 AGPMKTSYDKVI,0.8,0,
[…] (CDR3 as printed); G2K derived by comparing it with the table's wild-type CDR3 AGPMKTSYDKVI,0.928,0,
[…] (CDR3 as printed); S7K derived by comparing it with the table's wild-type CDR3 AGPMKTSYDKVI,1.32,0,
[…] (CDR3 as printed); D9R derived by comparing it with the table's wild-type CDR3 AGPMKTSYDKVI,1.08,0,
[…] (CDR3 as printed); V11M derived by comparing it with the table's wild-type CDR3 AGPMKTSYDKVI,1.2,0,
[…] (CDR3 as printed); G2A derived by comparing it with the table's wild-type CDR3 AGPMKTSYDKVI,0.977,0,
[…] (CDR3 as printed); D9M derived by comparing it with the table's wild-type CDR3 AGPMKTSYDKVI,0.931,0,
[…] (CDR3 as printed); S7V derived by comparing it with the table's wild-type CDR3 AGPMKTSYDKVI,0.928,0,
[…] (CDR3 as printed); T6L derived by comparing it with the table's wild-type CDR3 AGPMKTSYDKVI,1.1,0,

Variant,"enrichment [1, 3]","enrichment [1, 4]",enrichment [2]
[…] (CDR3 as printed); S7H derived by comparing it with the table's wild-type CDR3 AGPMKTSYDKVI,0.722,0,
[…] (CDR3 as printed); T6V derived by comparing it with the table's wild-type CDR3 AGPMKTSYDKVI,0.56,0,
[…] (CDR3 as printed); D9N derived by comparing it with the table's wild-type CDR3 AGPMKTSYDKVI,1.01,0,
[…] (CDR3 as printed); I12F derived by comparing it with the table's wild-type CDR3 AGPMKTSYDKVI,1.16,0,
[…] (CDR3 as printed); K10V derived by comparing it with the table's wild-type CDR3 AGPMKTSYDKVI,1.38,0,
[…] (CDR3 as printed); T6R derived by comparing it with the table's wild-type CDR3 AGPMKTSYDKVI,0.792,0,
[…] (CDR3 as printed); G2L derived by comparing it with the table's wild-type CDR3 AGPMKTSYDKVI,0.978,0,
[…] (CDR3 as printed); K10W derived by comparing it with the table's wild-type CDR3 AGPMKTSYDKVI,1.38,0,
[…] (CDR3 as printed); S7Y derived by comparing it with the table's wild-type CDR3 AGPMKTSYDKVI,0.999,0,
[…] (CDR3 as printed); D9G derived by comparing it with the table's wild-type CDR3 AGPMKTSYDKVI,1.23,0,
[…] (CDR3 as printed); P3Q derived by comparing it with the table's wild-type CDR3 AGPMKTSYDKVI,1.16,0,
[…] (CDR3 as printed); I12H derived by comparing it with the table's wild-type CDR3 AGPMKTSYDKVI,1.04,0,
[…] (CDR3 as printed); K10F derived by comparing it with the table's wild-type CDR3 AGPMKTSYDKVI,1.13,0,
[…] (CDR3 as printed); K5R derived by comparing it with the table's wild-type CDR3 AGPMKTSYDKVI,1.15,0,
[…] (CDR3 as printed); Y8C derived by comparing it with the table's wild-type CDR3 AGPMKTSYDKVI,1.27,0,
[…] (CDR3 as printed); I12C derived by comparing it with the table's wild-type CDR3 AGPMKTSYDKVI,1.05,0,
[…] (CDR3 as printed); M4E derived by comparing it with the table's wild-type CDR3 AGPMKTSYDKVI,0.637,0,
[…] (CDR3 as printed); Y8P derived by comparing it with the table's wild-type CDR3 AGPMKTSYDKVI,1.08,0,
[…] (CDR3 as printed); G2P derived by comparing it with the table's wild-type CDR3 AGPMKTSYDKVI,0.883,0,
[…] (CDR3 as printed); T6Y derived by comparing it with the table's wild-type CDR3 AGPMKTSYDKVI,1.48,0,
[…] (CDR3 as printed); V11H derived by comparing it with the table's wild-type CDR3 AGPMKTSYDKVI,0.891,0,
[…] (CDR3 as printed); I12T derived by comparing it with the table's wild-type CDR3 AGPMKTSYDKVI,0.984,0,

Variant,"enrichment [1, 3]","enrichment [1, 4]",enrichment [2]
[…] (CDR3 as printed); I12K derived by comparing it with the table's wild-type CDR3 AGPMKTSYDKVI,0.703,0,
[…] (CDR3 as printed); K5Y derived by comparing it with the table's wild-type CDR3 AGPMKTSYDKVI,0.737,0,
[…] (CDR3 as printed); S7T derived by comparing it with the table's wild-type CDR3 AGPMKTSYDKVI,0.968,0,
[…] (CDR3 as printed); S7I derived by comparing it with the table's wild-type CDR3 AGPMKTSYDKVI,1.04,0,
[…] (CDR3 as printed); M4L derived by comparing it with the table's wild-type CDR3 AGPMKTSYDKVI,0.995,0,
[…] (CDR3 as printed); A1E derived by comparing it with the table's wild-type CDR3 AGPMKTSYDKVI,0.767,0,
[…] (CDR3 as printed); Y8A derived by comparing it with the table's wild-type CDR3 AGPMKTSYDKVI,0.451,0,
[…] (CDR3 as printed); S7E derived by comparing it with the table's wild-type CDR3 AGPMKTSYDKVI,,,0
[…] (CDR3 as printed); M4A derived by comparing it with the table's wild-type CDR3 AGPMKTSYDKVI,,,8.93
[…] (CDR3 as printed); S7I derived by comparing it with the table's wild-type CDR3 AGPMKTSYDKVI,,,0
[…] (CDR3 as printed); G2N derived by comparing it with the table's wild-type CDR3 AGPMKTSYDKVI,,,0
[…] (CDR3 as printed); A1Q derived by comparing it with the table's wild-type CDR3 AGPMKTSYDKVI,,,0
[…] (CDR3 as printed); S7H derived by comparing it with the table's wild-type CDR3 AGPMKTSYDKVI,,,0
[…] (CDR3 as printed); S7Q derived by comparing it with the table's wild-type CDR3 AGPMKTSYDKVI,,,0
[…] (CDR3 as printed); G2M derived by comparing it with the table's wild-type CDR3 AGPMKTSYDKVI,,,0.715
[…] (CDR3 as printed); K10A derived by comparing it with the table's wild-type CDR3 AGPMKTSYDKVI,,,0
[…] (CDR3 as printed); D9T derived by comparing it with the table's wild-type CDR3 AGPMKTSYDKVI,,,0
[…] (CDR3 as printed); K5E derived by comparing it with the table's wild-type CDR3 AGPMKTSYDKVI,,,21.3
[…] (CDR3 as printed); K10D derived by comparing it with the table's wild-type CDR3 AGPMKTSYDKVI,,,0
[…] (CDR3 as printed); D9Y derived by comparing it with the table's wild-type CDR3 AGPMKTSYDKVI,,,0
